Laboratory results reported in publication PMC12219679, “High yield purification of an isoleucine zipper-modified CD95 ligand for efficient cell apoptosis initiation and with biotin or DNA-oligomer binding domain to probe ligand functionalization effects” (BMC Biotechnology, 2025).
Several values for one entry are separate records, joined by “and”; a condition that tells them apart may be missing. Equal values may be shown once.

What was measured:
[1] = target: the molecule itself; test: SEC; Superdex 75 10/300 GL (Fig. 3A) or ENrich SEC 70 10 x 300 (Fig. 3B, C); PBS pH 7.4, 0.3 ml/min; sizes from a standard curve of protein standards; peak shares from Gaussian fits
FLAG-CD95L (Enzo) = target: T1, FLAG-CD95L (Enzo) (UniProt P48023 130-281); test: ELISA; CD95-His coated at 2 µg/ml in PBS overnight at 4 °C; biotin-IZ-CD95L or FLAG-CD95L 0.1 nM to 100 nM in 0.5% BSA/PBST, 2 h at r.t.; detected with anti-CD95L antibody and HRP secondary; 4-parameter logistic fit; settings: both partners purified
T1 construct: CD95 ligand (CD95L, Fas ligand), soluble commercial protein with a FLAG tag; No catalogue number is printed; source: bought: Enzo Life Sciences
T1 sequence (looked up): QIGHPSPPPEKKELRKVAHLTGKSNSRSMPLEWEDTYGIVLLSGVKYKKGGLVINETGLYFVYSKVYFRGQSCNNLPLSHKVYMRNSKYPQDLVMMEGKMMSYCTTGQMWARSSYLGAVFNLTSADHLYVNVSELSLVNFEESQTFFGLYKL

B1: His-IZ-CD95L (His8-TEV-Cys-IZ-CD95L, secreted form without the IL2 signal peptide) (ligand)
chain: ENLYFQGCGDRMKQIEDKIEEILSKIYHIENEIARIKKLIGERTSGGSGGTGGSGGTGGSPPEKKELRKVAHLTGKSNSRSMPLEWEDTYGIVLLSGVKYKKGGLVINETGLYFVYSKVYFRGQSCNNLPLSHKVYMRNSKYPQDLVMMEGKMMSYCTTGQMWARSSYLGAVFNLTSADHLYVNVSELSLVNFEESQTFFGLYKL
notes: TEV protease cleavage site ENLYFQ, extra cysteine, isoleucine zipper (IZ, variant of the GCN4 leucine zipper) and linker; stands after the His8 tag in the printed insert; CD95 ligand (CD95L, Fas ligand, CD178, TNFSF6), human, extracellular domain, amino acids 137-281, without the stalk region; Origin: a designed isoleucine zipper joined to a natural stretch of CD95L; also called X-IZ-CD95L; …
B1 was tested, and the “stoichiometry N” value [1] was 3 and 2.

B2: CD95-His (Sino Biological) (receptor, UniProt P25445 26-173, looked up)
chain: QVTDINSKGLELRKTVTTVETQNLEGLHHDGQFCHKPCPPGERKARDCTVNGDEPDCVPCQEGKEYTDKAHFSSKCRRCRLCDEGHGLEVEINCTRTQNTKCRCKPNFFCNSTVCEHCDPCTKCEHGIIKECTLTSNTKCKEEGSRSN
notes: CD95 (Fas, Apo-1), soluble commercial protein with a His tag; No catalogue number is printed; In the functional rows on Hela WT cells the CD95 is the endogenous receptor of the cells; this molecule stands for it; also called Fas; Apo-1; source: bought: Sino Biological
With B2 the Kd (FLAG-CD95L (Enzo)) was 11.3 nM.
